The experiment addresses T1, Rab escort protein REP-1 (UniProt P24386 1-653).
T1 construct: Endogenous protein detected by Western blot (Abcam cat# 134964)
T1 sequence (looked up): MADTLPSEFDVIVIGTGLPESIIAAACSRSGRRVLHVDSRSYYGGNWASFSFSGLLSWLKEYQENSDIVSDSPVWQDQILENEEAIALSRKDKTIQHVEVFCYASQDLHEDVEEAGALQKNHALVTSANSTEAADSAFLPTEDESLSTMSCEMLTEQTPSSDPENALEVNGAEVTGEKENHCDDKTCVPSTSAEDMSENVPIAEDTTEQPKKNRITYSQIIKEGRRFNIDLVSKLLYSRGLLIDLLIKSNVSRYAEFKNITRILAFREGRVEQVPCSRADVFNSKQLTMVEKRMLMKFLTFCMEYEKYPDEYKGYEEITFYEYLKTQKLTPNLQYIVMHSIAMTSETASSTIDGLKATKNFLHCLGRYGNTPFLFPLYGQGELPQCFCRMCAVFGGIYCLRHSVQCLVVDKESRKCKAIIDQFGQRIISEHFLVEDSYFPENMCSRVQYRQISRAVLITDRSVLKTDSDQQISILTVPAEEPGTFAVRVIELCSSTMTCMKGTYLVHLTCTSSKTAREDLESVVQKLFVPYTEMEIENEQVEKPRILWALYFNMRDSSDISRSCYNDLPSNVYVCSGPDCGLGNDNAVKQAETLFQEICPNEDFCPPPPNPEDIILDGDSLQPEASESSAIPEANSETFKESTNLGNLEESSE
Nature of the experiment: co-immunoprecipitation of GFP-Rab13 with GFP-Trap beads from MDA-MB-231 lysates, Western blot. Here is the method: For immunoprecipitations, cells were lysed with a buffer containing 50mM Tris pH 7.4, 1% NP-40, 150mM NaCl, 10mM MgC12, 10% glycerol and a cocktail of protease and phosphatase inhibitors (Thermo Fischer Scientific, cat# 1861281). Lysates were cleared by centrifugation and mixed with GFP-Trap Magnetic Agarose beads (Chromotek, cat# gtma-10) for 1.5 h, at 4° C. Immobilized complexes were eluted with Laemmli's buffer and analyzed by SDS-PAGE and immunoblotting.

These results are taken from patent US20230057461A1 (US Dept. of Health and Human Services, published 2023).

B1: GFP-Rab13 (N-terminally GFP-tagged human Rab13) (other, UniProt P51153 1-203, looked up, not shown: large carriers)
chain: MAKAYDHLFKLLLIGDSGVGKTCLIIRFAEDNFNNTYISTIGIDFKIRTVDIEGKKIKLQVWDTAGQERFKTITTAYYRGAMGIILVYDITDEKSFENIQNWMKSIKENASAGVERLLLGNKCDMEAKRKVQKEQADKLAREHGIRFFETSAKSSMNVDEAFSSLARDILLKSGGRRSGNGNKPPSTDLKTCDKKNTNKCSLG
notes: Stably expressed in MDA-MB-231 cells from constructs with the wild type or the delta-PMO Rab13 3'UTR; the encoded protein is the same; Assayed from cell lysates; also called exogenous GFP-Rab13; exogenous Rab13
Consider B1, for which the binding result is “binds”.
